Assay results published in PMC2910870 (Neuron, 2010).

What was measured:
Assay in all cases: SPR
[1] = molecular target: NL3A1A2 (rat neuroligin 3 cholinesterase-like region, with inserts A1 and A2) (rat, UniProt Q62889 42-633)
[2] = molecular target: NL2A (rat neuroligin 2 cholinesterase-like region, with insert A) (rat, UniProt Q62888 46-612)
[3] = molecular target: NL1AB (rat neuroligin 1 cholinesterase-like region, with inserts A and B) (rat, UniProt Q62765 48-638)
NL1AB (rat neuroligin 1 cholinesterase-like region, with inserts A and B), sequence (Q62765 48-638): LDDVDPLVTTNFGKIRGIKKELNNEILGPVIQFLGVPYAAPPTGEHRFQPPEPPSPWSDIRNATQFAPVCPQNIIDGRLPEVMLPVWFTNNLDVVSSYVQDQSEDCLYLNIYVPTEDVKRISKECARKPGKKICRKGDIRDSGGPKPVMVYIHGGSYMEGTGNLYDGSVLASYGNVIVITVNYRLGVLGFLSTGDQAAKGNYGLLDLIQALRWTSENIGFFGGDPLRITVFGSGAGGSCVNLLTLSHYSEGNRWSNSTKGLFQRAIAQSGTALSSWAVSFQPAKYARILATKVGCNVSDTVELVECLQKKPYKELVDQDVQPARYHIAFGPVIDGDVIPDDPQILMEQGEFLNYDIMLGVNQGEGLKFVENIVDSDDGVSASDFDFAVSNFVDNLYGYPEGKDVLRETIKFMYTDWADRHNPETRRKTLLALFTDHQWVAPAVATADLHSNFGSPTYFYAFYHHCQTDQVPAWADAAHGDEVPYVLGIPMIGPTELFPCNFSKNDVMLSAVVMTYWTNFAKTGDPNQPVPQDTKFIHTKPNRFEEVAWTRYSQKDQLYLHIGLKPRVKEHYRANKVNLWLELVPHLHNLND

NL3A1A2 (rat neuroligin 3 cholinesterase-like region, with inserts A1 and A2), sequence (Q62889 42-633): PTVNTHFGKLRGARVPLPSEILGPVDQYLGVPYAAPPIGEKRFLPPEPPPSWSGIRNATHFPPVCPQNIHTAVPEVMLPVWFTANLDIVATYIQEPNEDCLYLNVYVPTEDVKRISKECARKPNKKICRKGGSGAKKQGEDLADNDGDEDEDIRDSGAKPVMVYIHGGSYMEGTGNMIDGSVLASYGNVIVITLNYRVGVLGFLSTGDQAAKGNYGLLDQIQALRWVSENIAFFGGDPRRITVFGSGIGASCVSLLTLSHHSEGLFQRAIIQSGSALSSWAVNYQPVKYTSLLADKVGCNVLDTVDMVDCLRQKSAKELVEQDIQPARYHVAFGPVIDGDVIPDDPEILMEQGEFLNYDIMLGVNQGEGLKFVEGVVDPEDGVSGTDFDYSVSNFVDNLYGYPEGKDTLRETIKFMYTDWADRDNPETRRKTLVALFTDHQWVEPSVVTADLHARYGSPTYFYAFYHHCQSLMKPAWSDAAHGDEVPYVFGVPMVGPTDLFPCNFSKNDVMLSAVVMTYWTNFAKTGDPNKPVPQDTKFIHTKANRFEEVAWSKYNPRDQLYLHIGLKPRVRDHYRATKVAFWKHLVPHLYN
NL2A (rat neuroligin 2 cholinesterase-like region, with insert A), sequence (Q62888 46-612): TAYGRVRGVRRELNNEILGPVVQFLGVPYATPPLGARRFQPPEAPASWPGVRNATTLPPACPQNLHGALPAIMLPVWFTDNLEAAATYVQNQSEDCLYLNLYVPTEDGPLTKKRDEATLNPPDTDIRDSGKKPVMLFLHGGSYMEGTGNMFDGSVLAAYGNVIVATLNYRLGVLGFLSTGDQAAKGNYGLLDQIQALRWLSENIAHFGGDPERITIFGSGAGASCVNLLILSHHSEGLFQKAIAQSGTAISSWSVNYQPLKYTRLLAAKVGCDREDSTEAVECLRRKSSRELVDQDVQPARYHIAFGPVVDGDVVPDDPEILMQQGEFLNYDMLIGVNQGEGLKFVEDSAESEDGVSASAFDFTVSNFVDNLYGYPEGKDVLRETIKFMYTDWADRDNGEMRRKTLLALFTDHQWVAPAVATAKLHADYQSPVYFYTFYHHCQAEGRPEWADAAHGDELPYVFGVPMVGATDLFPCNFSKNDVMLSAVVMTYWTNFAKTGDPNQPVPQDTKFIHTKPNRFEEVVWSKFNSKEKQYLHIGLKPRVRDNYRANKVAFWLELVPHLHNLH

Binder	Kd [1] [µM]	Kd [2] [µM]	Kd [3] [µM]
β-NRX1+4 (mouse β-neurexin 1 LNS domain, with splice insert 4) (domain or fragment, N-glycosylation at Asn184) not shown	21	3.17	2.82
β-NRX2+4 (rat β-neurexin 2 LNS domain, with splice insert 4) (domain or fragment, N-glycosylation at Asn186) not shown	48	3.01	5.66
